Reference: IntAct's records for PubMed 15678106

B1: Tumor protein p73 (Homo sapiens), O15350-1 (parent)
chain: MAQSTATSPDGGTTFEHLWSSLEPDSTYFDLPQSSRGNNEVVGGTDSSMDVFHLEGMTTSVMAQFNLLSSTMDQMSSRAASASPYTPEHAASVPTHSPYAQPSSTFDTMSPAPVIPSNTDYPGPHHFEVTFQQSSTAKSATWTYSPLLKKLYCQIAKTCPIQIKVSTPPPPGTAIRAMPVYKKAEHVTDVVKRCPNHELGRDFNEGQSAPASHLIRVEGNNLSQYVDDPVTGRQSVVVPYEPPQVGTEFTTILYNFMCNSSCVGGMNRRPILIIITLEMRDGQVLGRRSFEGRICACPGRDRKADEDHYREQQALNESSAKNGAASKRAFKQSPPAVPALGAGVKKRRHGDEDTYYLQVRGRENFEILMKLKESLELMELVPQPLVDSYRQQQQLLQRPSHLQPPSYGPVLSPMNKVHGGMNKLPSVNQLVGQPPPHSSAATPNLGPVGPGMLNNHGHAVPANGEMSSSHSAQSMVSGSHCTPPPPYHADPSLVSFLTGLGCPNCIEYFTSQGLQSIYHLQNLTIEDLGALKIPEQYRMTIWRGLQDLKQGHDYSTAQQLLRSSNAATISIGGSGELQRQRVMEAVHFRVRHTITIPNRGGPGGGPDEWADFGFDLPDCKARKQPIKEEFTEAEIH

Variants of: B1
Settings: with itch_human ITCH

Q: Which “effect of a mutation on the interaction” value does the source give for Y487F here?
A: The value was “disrupting interaction”.
